According to US20250074980A1 (BRIGHAM AND WOMEN S HOSPITAL, published 2025):

T1: CEACAM8 on transfected HeLa cells (human, UniProt P31997 35-320)
T1 construct: whole, on cells; also called HeLa-CEACAM8; HeLa C8
T1 sequence (looked up): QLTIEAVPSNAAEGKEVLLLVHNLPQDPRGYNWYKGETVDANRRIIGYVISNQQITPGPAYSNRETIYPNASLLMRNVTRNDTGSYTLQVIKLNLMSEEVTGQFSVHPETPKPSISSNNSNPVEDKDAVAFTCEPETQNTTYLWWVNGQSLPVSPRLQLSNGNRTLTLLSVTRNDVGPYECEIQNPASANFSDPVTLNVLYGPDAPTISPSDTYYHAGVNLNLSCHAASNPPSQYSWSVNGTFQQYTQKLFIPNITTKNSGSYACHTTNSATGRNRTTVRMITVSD

T2: CEACAM3 on transfected HeLa cells (human, UniProt P40198 35-252)
T2 construct: whole, on cells; also called HeLa-CEACAM3; HeLa C3
T2 sequence (looked up): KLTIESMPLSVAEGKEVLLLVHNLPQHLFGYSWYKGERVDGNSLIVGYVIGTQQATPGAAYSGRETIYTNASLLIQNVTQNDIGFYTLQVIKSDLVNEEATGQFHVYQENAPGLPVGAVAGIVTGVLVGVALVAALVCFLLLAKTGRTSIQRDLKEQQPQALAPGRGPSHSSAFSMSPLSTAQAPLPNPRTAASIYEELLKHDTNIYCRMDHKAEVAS

T3: CEACAM6 on transfected HeLa cells (human, UniProt P40199 35-320)
T3 construct: whole, on cells; also called HeLa-CEACAM6; HeLa C6
T3 sequence (looked up): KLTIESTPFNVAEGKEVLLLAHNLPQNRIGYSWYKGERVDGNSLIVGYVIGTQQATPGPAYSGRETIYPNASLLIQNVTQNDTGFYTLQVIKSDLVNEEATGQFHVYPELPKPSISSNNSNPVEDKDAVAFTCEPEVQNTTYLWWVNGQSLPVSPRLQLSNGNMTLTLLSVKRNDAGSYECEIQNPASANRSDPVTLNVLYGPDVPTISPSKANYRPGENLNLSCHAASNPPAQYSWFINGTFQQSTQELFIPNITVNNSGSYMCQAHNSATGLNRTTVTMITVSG


Tests used:
[1] = biological target: T1, CEACAM8 on transfected HeLa cells; assay: flow cytometry titration, HeLa-CEACAM8 transfectants, anti-human IgG4 FITC
Protocol: FIGS. 31A and 31B show flow cytometry analyses of stable HeLa CEACAM1 (HeLa C1) transfectant, stable HeLa CEACAM3 transfectant (HeLa C3), stable HeLa CEACAM5 transfectant (HeLa C5), stable HeLa CEACAM6 transfectant (HeLa C6), and stable HeLa CEACAM8 transfectant (HeLa C8). FIG. 31A: 5×10\hat{ }4 indicated HeLa transfectants were washed with staining buffer and CP08H03/Vκ8 S29A (labeled “CP08”, left) or CEACAM1 antibody CM-24 was incubated at room temperature for 30 min, washed twice with staining buffer, and stained for anti-human IgG4 Fluorescein isothiocyanate (FITC) conjugated secondary antibody at room temperature for 20 min. Fluorescence intensities were determined by flow cytometry. Live cells were determined by 4′,6-diamidino-2-phenylindole (DAPI) staining as shown on the y-axis. Staining with the respective CEACAM1 antibody is shown on the x-axis. […]
The cervical adenocarcinoma cell line HeLa (ATCC No CCL-2) as well as transfected cell lines HeLaCEACAM1, HeLaCEACAM3, HeLaCEACAM5, HeLaCEACAM6 and HeLaCEACAM8 used for flow cytometry experiments were cultured at 37° C., 5.0% CO₂ in Dulbecco's modified Eagle's medium supplemented with 10% fetal bovine serum, penicillin (100 U/ml) and dihydrostreptomycin (100 μg/ml). […] Data were acquired with a Cytoflex flow cytometer (Invitrogen) and analyzed with FlowJo software (TreeStar, V7.6.5 for Windows).

[2] = biological target: T1, CEACAM8 on transfected HeLa cells; assay: flow cytometry, transfected HeLa
Method in brief: (§1)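 For each HeLa line stably transfected with one CEACAM family member, staining is given as the measure of binding selectivity. Cultures were held at 37° C with 5.0% CO₂ in DMEM plus 10% fetal bovine serum. The test antibody, a fluorochrome-conjugated isotype-specific secondary antibody and DAPI as viability dye were applied, with acquisition on a Cytoflex and analysis in FlowJo.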

[3] = biological target: T2, CEACAM3 on transfected HeLa cells; assay: flow cytometry, transfected HeLa
Method in brief: as §1

[4] = biological target: T3, CEACAM6 on transfected HeLa cells; assay: flow cytometry, HeLa-CEACAM6 transfectants, % positive cells

Row | binding result [1] | binding result [2] | binding result [3] | binding result [4] | Binder
1 | no binding (tested: 100 ug/ml) |  |  |  | CP08H03/Vκ8 S29A (antibody, IgG4, V domains shown, IgG4 (S241P), kappa; also called CP08_H03/Parent VL; CP08_H03/Parental) VH: EVQLLESGGGLVQPGGSLRLSCAASGFIFSSHGMSWVRQAPGKGLEWVATISSGGTYTYYPDSVKGRFTISRDNSKNTLYLQMNSLKAEDTAMYYCARHDFDYFPYWFAHWGQGTLVTVSS VL: EIVLTQSPATLSLSPGERATLSCRANSAVSYMYWYQQKPGQAPRPWIYLTSNRATGVPARFSGSGSGTDYTLTISSLEPEDFAVYYCQQWSSNPPTFGQGTKLEIK
2 |  | no binding | no binding | no binding | chimeric antibody VH0/Vκ0 (antibody, IgG4, V domains shown, IgG4 (S241P), kappa; also called VH0/Vκ0 (control); Chimeric VH0/Vκ0) VH: EVQLVESGGDLVKPGGSLKLACAASGFIFSSHGMSWVRQTPDKRLEWVATISSGGTYTYYPDSVKGRFTISRDNDKNTLYLQMNSLKSEDTAMYYCARHDFDYDAAWFAYWGQGTLVTVSS VL: QIVLTQSPALMSASPGVKVTMTCSANSSVSYMYWYRQKPRSSPKPWIYLTSNLASGVPARFSGSGSGTSYSLTISSMEAEDAATYYCQQWSSNPPTFGSGTKLEIK
